# In paper PMC5648539:
# Target: FLAG-tagged human CXCR4, wild type (human) (UniProt P61073)
# Sequence (P61073 whole entry): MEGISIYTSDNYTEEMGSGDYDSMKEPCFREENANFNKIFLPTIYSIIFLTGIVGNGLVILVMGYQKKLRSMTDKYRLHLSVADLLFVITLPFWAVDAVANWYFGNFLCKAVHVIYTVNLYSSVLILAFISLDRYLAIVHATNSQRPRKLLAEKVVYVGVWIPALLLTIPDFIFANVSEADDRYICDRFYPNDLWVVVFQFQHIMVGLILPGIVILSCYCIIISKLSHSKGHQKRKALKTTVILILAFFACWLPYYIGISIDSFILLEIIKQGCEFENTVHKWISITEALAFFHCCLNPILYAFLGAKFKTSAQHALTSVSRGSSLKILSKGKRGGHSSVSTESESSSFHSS
Ca2+ flux response (potency),Ca2+ flux dose response (printed as Kd),Substance
110 nM,–,CXCL12(R8A) (from UniProt P48061-2 22-89) (ligand)
95 nM,–,CXCL12(R12A) (from UniProt P48061-2 22-89) (ligand)
–,21 nM,CXCL12 with Asn33 mutated to glutamic acid (from UniProt P48061-2 22-89) (ligand)
